Measured values taken from publication PMC9481602 (Nature Communications, 2022).

Tests used:
nonmodified ubiquitin = molecular target: T1, nonmodified ubiquitin (UniProt P0CG48 1-76); assay: NMR titration; unlabelled Ubiquilin-2 UBA domain added stepwise to 15N-labelled Ub variants (33 µM Ub 11AcK and nonmodified Ub; 157 µM the other variants); 1H-15N HSQC, 298 K, 18.8 T, 20 mM NaH2PO4 pH 6.8, 5% D2O; global fit of six residues assuming 1:1 binding; settings: both partners purified
T1 construct: ubiquitin (Ub), the 76-residue cut product of its precursors; codon-optimized cDNA; 15N isotopically labelled in the NMR titration; also called Ub (wt); source: E. coli, purified (HisTrap, His-tag removed with UCHL3, HiTrap SP); not shown: His6, C-terminal, cleaved

[1] = molecular target: T2, ubiquitin acetylated at K11 (UniProt P0CG48 1-76, acetyllysine (AcK) at position 11); assay: as above; settings: both partners purified
T2 construct: ubiquitin (Ub), the 76-residue cut product of its precursors; codon-optimized cDNA; K11 replaced by acetyllysine; 15N isotopically labelled in the NMR titration; also called Ub 11AcK; source: E. coli B834 (DE3), amber suppression with AcK-RS/tRNA, purified (HisTrap, His-tag removed with UCHL3, HiTrap SP); not shown: His6, C-terminal, cleaved

Kd (nonmodified ubiquitin): 2000 ± 400 nM | Kd [1]: 8 ± 0.8 µM
B1: UBA domain of human Ubiquilin-2 (domain or fragment, UniProt Q9UHD9 581-621, looked up)
chain: RFQQQLEQLNAMGFLNREANLQALIATGGDINAAIERLLGS
notes: Ubiquilin-2 (Chap1, hPLIC-2), human, UBA domain; Unlabelled; also called UQ2-UBA; Chap1; source: E. coli BL21 (DE3) Rosetta, purified (Glutathione Sepharose, TEV cleavage, SEC); not shown: GST, N-terminal, cleaved
